This is an account of results in patent US20120269822A1 (published 2012).

Experiment [1] addresses T1, BoNT/A Lc448, truncated botulinum neurotoxin serotype A light chain containing residues 1-448 (Clostridium botulinum, UniProt P0DPI0 1-448).
T1 construct: range 1-448
Kind of experiment: flow cytometry, yeast-displayed VHH titrated with soluble BoNT/A Lc448.

The target of experiment [2] is T1, BoNT/A Lc448, truncated botulinum ….
Experiment [3] has the same target. Put plainly: KinExA flow fluorimetry, solution kinetics, purified Aa1 VHH and BoNT/A Lc448.
The target is the same in experiment [4]. Kind of experiment: KinExA; calculated as KD × kon.
Experiment [5] shares this target. Kind of experiment: KinExA flow fluorimetry, solution equilibrium, purified Aa1 VHH and BoNT/A Lc448.

T1 sequence (P0DPI0 1-448 limits assumed): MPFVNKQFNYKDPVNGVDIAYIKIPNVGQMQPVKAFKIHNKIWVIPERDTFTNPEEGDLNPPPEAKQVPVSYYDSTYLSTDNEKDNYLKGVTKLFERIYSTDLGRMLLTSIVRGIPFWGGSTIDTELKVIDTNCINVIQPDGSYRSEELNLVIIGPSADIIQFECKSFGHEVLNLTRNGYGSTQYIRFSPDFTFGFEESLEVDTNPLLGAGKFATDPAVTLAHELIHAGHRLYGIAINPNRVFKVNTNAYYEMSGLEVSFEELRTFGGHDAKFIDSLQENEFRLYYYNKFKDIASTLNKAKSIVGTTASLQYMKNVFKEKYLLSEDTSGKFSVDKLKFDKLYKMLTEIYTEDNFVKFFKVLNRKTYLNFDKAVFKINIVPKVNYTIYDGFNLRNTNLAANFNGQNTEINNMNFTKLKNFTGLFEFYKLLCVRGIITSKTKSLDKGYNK

B1: Aa11 VHH (VHH)
VHH: QVQLVESGGGLVQAGGSLRLSCAASGRTFSSYAMGWFRQAPGKEREFVAAISWSGGSTYYADSVKGRFTISRDDARNTVTLLMNSLKPEDTAVYFCNAWSLEEQYWGQGTQVTVSS
With B1, in experiment [1], binding was put at a Kd of 76.1 nM.

B2: Aa6 VHH (VHH)
VHH: AVQLVESGGGLVASGGSLRLSCAASDFKFSDYWMHWIRQAPGKEREFVASIGWNGEITDYEESIEGRFAISRDNNKYTLYLEMRDLIPEDTGLYYCAASSDYRWSRQPFEFENWGQGTQVTVSS
The molecule B2 displayed a Kd in experiment [1] of 0.52 nM.

B3: A19 VHH (VHH)
VHH: EVQLVESGGGLVQPGGSLRLSCAASGFTFSGSAMSWVRQTPGKGLEWVSFISRSGSVTEYADSVKGRFTIARDNAPNTVYLQMNSLKPEDTAVYYCTADSYVDYEDDRLKWHHSWGQGTQVTVSS
B3 registered a Kd in experiment [1] of 4.65 nM.

B4: Aa9 VHH (VHH)
VHH: QVQLVESGGGMVQPGGSLRLSCKGSGSVFMFYDMGWYRQAPGNQRELVAVMGPGGNTNYADAVKGRFTVARNIDEDTVSLLMTNLEPEDTAVYYCAADFDTPWGASGRYDYWGQGTQVTVSS
In the case of B4, the affinity in experiment [1], expressed as Kd, was 4.08 nM.

B5: A21 VHH (VHH)
VHH: QVQLVESGGGVVQAGGSLRLSCVASGFTIDDYPVAWFRQAPGKEREAVSCIGNRGGTTYYADSVKGRFSISRDDAKDTVYLQMNNLKSEDTAVYYCVKDLGSVGPGAEYDYWGQGTLVTVSS
As for B5, the affinity in experiment [1], expressed as Kd, was 60.7 nM.

B6: Aa1 VHH (VHH)
VHH: AVQLVDSGGGTLQAGKSLRLSCAISGLAFDGGAMGSEHRLTAGAMGWFRQAPGKDREFVAAISPRTDETYYAESLEGRFSVSRDAAATMVFLEADNVRLDDTASYYCAADEDVTPRVMGVIPHADHWGQGTLVTVSS
Turning to B6, the “IC50 (read off the curve)” value in experiment [2] was approximately 0.1 nM. The Kd in experiment [1] came out at 0.03 nM; in experiment [5] it was 0.147 nM. The molecule further displayed a kon in experiment [3] of 4.39e+07 M⁻¹ s⁻¹. Also, the koff in experiment [4] is 0.00666 s⁻¹.

B7: Aa8 VHH (VHH)
VHH: AVQLVESGGGLVQAGDSLRLSCTLSGGTFRHYAMSWFRQAPGKERVFVARIDYDGAMKYYADSVKGRFTISRDNAKNTMYLQMNSLKPEDTAVYYCNAHWDYGLGPEWDYWGQGTLVTVSS
In the case of B7, in experiment [1], the dissociation constant (Kd) was determined as 112 nM.

B8: A26 VHH (VHH)
VHH: DVQLVESGGGLVQPGGSLRLSCVVSGLTSTEYAIGWFRQAPGKEREGVACLVVSGHNSGRTHYSAAVKGRFTVSQDDATNTAILHMDNLQPKDTAVYYCAAEVSSGQPAVTTFWEDMYDYWGQGTQVTVSS
In the case of B8, in experiment [1], binding was put at a Kd of 8.7 nM.

B9: A23 VHH (VHH)
VHH: AVQLVESGGGAVSPGGSLKLSCTASGLAFNGGAMGSEHRLTAGAMGWFRQAPGKDREFVAAIHPRTNDTYYSGTLEDRFTISIDDAKMTVYLQADSLRLEDTAVYSCAADEDVTPRGMGVIPYAEYWGQGTQVTVSS
On to B9, for which the Kd in experiment [1] was found to be 16.9 nM.
